In article PMC6224480, “Insights into Kinesin-1 Activation from the Crystal Structure of KLC2 Bound to JIP3” (Structure(London, England:1993), 2018):

Experiments:
[1] = target: JIP3^LZ (leucine zipper domain of murine JIP3 isoform A, residues 417-487) (murine); assay: SEC-MALS; JIP3^LZ on a WTC-030S5 column; 25 mM HEPES pH 7.5, 0.1 M NaCl, 1 mM TCEP; 1 ml/min
GST3C-JIP3^LZ (murine) = assay: ITC; KLC2^TPR as titrant, GST3C-JIP3^LZ in the cell; 25°C; 0.5 M NaCl, 25 mM HEPES, 5 mM MgCl2, 1 mM TCEP, pH 7.5; four experiments globally fitted with a two-stage sequential model (A + B + B → AB + B → ABB); macroscopic association constants

KLC2^TPR (murine kinesin light chain 2 TPR domain, residues 191-480), sequence (O88448 190-479): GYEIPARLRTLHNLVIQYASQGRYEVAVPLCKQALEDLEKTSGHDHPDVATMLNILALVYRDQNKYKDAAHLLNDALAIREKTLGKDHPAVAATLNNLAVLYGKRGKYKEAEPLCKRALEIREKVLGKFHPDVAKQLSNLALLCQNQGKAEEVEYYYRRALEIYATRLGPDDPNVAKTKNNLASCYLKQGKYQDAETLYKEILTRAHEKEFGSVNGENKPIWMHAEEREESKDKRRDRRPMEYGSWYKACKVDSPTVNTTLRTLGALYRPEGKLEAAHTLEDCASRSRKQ

stoichiometry N [1]	K (macroscopic association constant), stage A + B + B → BA + B (GST3C-JIP3^LZ (murine)) [µM⁻¹]	K (macroscopic association constant), stage BA + B → BAB (GST3C-JIP3^LZ (murine)) [µM⁻¹]	dH, stage A + B + B → BA + B (GST3C-JIP3^LZ (murine)) [kcal/mol]	dH, stage BA + B → BAB (GST3C-JIP3^LZ (murine)) [kcal/mol]	Substance
2					JIP3^LZ (leucine zipper domain of murine JIP3 isoform A, residues 417-487) (domain or fragment)
	0.132	0.132	-18.8	0.952	KLC2^TPR (murine kinesin light chain 2 TPR domain, residues 191-480) (from UniProt O88448 190-479) (domain or fragment)
